One variant from IntAct's records for PubMed 23164639 can be followed below.

Sequences and labels used below:
B1: Peroxiredoxin-6 (Mus musculus), O08709 (parent)
chain: MPGGLLLGDEAPNFEANTTIGRIRFHDFLGDSWGILFSHPRDFTPVCTTELGRAAKLAPEFAKRNVKLIALSIDSVEDHLAWSKDINAYNGETPTEKLPFPIIDDKGRDLAILLGMLDPVEKDDNNMPVTARVVFIFGPDKKLKLSILYPATTGRNFDEILRVVDSLQLTGTKPVATPVDWKKGESVMVVPTLSEEEAKQCFPKGVFTKELPSGKKYLRYTPQP

Variants of B1 are the subject of this experiment. The note with it: with gstp1_mouse Gstp1, P19157.
Sequence of gstp1_mouse Gstp1, P19157 (P19157 whole entry): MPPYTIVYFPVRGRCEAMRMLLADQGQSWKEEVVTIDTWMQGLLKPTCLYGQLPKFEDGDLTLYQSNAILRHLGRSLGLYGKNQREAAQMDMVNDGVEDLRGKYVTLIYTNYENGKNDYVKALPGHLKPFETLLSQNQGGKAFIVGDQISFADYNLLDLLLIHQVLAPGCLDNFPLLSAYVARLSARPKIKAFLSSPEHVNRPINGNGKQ
As to MPGGLLLGDEAPNFEANTTIGRIRFHDFLGDSWGILFSHPRDFTPVSTTELGRAAKLAPEFAKRNVKLIALSIDSVEDHLAWSKDINAYNGETPTEKLPFPIIDDKGRDLAILLGMLDPVEKDDNNMPVTARVVFIFGPDKKLKLSILYPATTGRNFDEILRVVDSLQLTGTKPVATPVDWKKGESVMVVPTLSEEEAKQCFPKGVFTKELPSGKKYLRYTPQP [C47S], the “effect of a mutation on the interaction” value is “disrupting interaction”.
